For 1 substance, reduction in γIFN secretion of Long Term AAA cells with PBL presenting cells and collagen results are on record in US20040151731A1.

In the assay the target is HLA-A, B, C on presenting PBL. As to the kind of experiment: cell-based or functional assay.

As to “W6/32 (anti-HLA-A, B, C) monoclonal antibody”, the reduction in γIFN secretion of Long Term AAA cells with PBL presenting cells and collagen amounted to 74%.
